Assay [1] deals with recombinant Zika virus E protein (soluble E, lacking the stem-anchor region) (Zika virus). The assay is described as follows: rate zonal ultracentrifugation in sucrose gradients; 3-5 ug E protein on sucrose gradients, 20 h at 38,000 rpm, 15°C, Beckman SW40 rotor; fractions quantified by ELISA (Strep-Tactin capture, mab A1 detection). For orientation: An ELISA detects its analyte on a solid surface through an enzyme-linked reagent.

Assay [2] has the same target. The assay is described as follows: SEC; Superdex 200 Increase 3.2/300 column, ÄKTA FPLC, TAN buffer pH 8.0. (In general: SEC sorts molecules by how far they enter the pores of the column.)

As usually defined, the stoichiometry N is a count of units in the complex or per binding partner. On to “recombinant Zika virus E protein (soluble E, lacking the stem-anchor region) (domain or fragment)”, for which the stoichiometry N in assay [1] and in assay [2] was 2 throughout.

For the origin of these results see paper PMC7021315.
